Assay results from the DeepSol protein solubility set.

test: soluble on expression in E. coli; label from the status in PepcDB or PDB records

| Sequence | soluble on expression in E. coli |
| --- | --- |
| MIKIDDEAITFVVQGPVQASASRQQIAGITEQCLNSIRRFFPKSTIILSTWKGQPLDGLDYDQVLELDDPGANTVFYDGQPIKLNNNRQMYSTHMGLKAVKTPYAVKLRTDNLLTGRQFVELYERYADLPRAQNYQFLTQRVLTSSTFFISSHYGHPVHFHKSDLFDFGLTQDLLTIWSDRWIPELHFTLKPGYKARHPATEQVLCLNWISALLDEEHHIESKTCDHAGLGENFWPQFMANNLLMDCPENIGLDVTERFYKRGNLALEYDLKDWLHLNQITSIPYDKKRLYRYYRNQIGRILKKIHSFN | not soluble |
| MFKPELLSPAGTLKNMRYAFAYGADAVYAGQPRYSLRVRNNEFNHENLQLGINEAHALGKKFYVVVNIAPHNAKLKTFIRDLKPVVEMGPDALIMSDPGLIMLVREHFPEMPIHLSVQANAVNWATVKFWQQMGLTRVILSRELSLEEIEEIRNQVPDMEIEIFVHGALCMAYSGRCLLSGYINKRDPNQGTCTNACRWEYNVQEGKEDDVGNIVHKYEPIPVQNVEPTLGIGAPTDKVFMIEEAQRPGEYMTAFEDEHGTYIMNSKDLRAIAHVERLTKMGVHSLKIEGRTKSFYYCARTAQVYRKAIDDAAAGKPFDTSLLETLEGLAHRGYTEGFLRRHTHDDYQNYEYGYSVSDRQQFVGEFTGERKGDLAAVAVKNKFSVGDSLELMTPQGNINFTLEHMENAKGEAMPVAPGDGYTVWLPVPQDLELNYALLMRNFSGETTRNPHGK | not soluble |
| MHHHHHHGKPIPNPLLGLDSTENLYFQGIDPFTKAYAFGFPKIGEKREFKKALEDFWKGKITEEQFEEEMNKLRMYMVENYRKNVDVIPSNELSYYDFVLDTAVMVGAVPERFGEYRGLSTYFDMARGGKALEMTKFFNTNYHYLVPEIETEEFYLLENKPLEDYLFFKSKGIETAPWVIGPFTFLYLSKRNGEWIRRPNQMEKLLESLVSVYKEVFEKLVENGCKEILVNEPAFVCDLEKAHWDLILNVYRELSEFPLTVFTYYDSVSDYEACVSLPVKRLHFDFVSNEENLKNLEKHGFPEDKKLVAGVINGRQPWKVDLRKVASLVEKLGASAISNSCPLFHLPVTLELENNLPGGLKEKLAFAKEKLEELKMLKDFLEGKTFDLPNVSFEDFAVDLQAVERVRNLPEDSFRREKEYTERDRIQRERLNLPLFPTTTIGSFPQTPEVRKMRSKYRKGEISKEEYEAFIKEQIKKAIELQEEIGLDVLVHGEFERTDMVEFFAEKLNGIATTQNGWVLSYGSRCYRPPIIYGTVTRPEPMTLKEITYAQSLTEKPVKGMLTGPVTIMSWSYYREDIPEREIAYQIALAINEEVKDLEEAGIKIVQIDEPAFREKAPIKKSKWPEYFEWAINAFNLAANARPETQIHAHMCYSDFNEIIEYIHQLEFDVISIEASRSKGEIISAFENFKGWIKQIGVGVWDIHSPAVPSINEMREIVERVLRVLPKELIWINPDCGLKTRNWDEVIPSLRNMVALAKEMREKFES | soluble |
| MISIKGTGRFLLDNYRIWQRRAFNRPIQLRKGYKVLAIETSCDDTCVSVLDRFSKSAAPNVLANLKDTLDSIDEGGIIPTKAHIHHQARIGPLTERALIESNAREGIDLICVTRGPGMPGSLSGGLDFAKGLAVAWNKPLIGVHHMLGHLLIPRMGTNGKVPQFPFVSLLVSGGHTTFVLSRAIDDHEILCDTIDIAVGDSLDKCGRELGFKGTMIAREMEKFINQDINDQDFALKLEMPSPLKNSASKRNMLSFSFSAFITALRTNLTKLGKTEIQELPEREIRSIAYQVQESVFDHIINKLKHVLKSQPEKFKNVREFVCSGGVSSNQRLRTKLETELGTLNSTSFFNFYYPPMDLCSDNSIMIGWAGIEIWESLRLVSDLDICPIRQWPLNDLLSVDGWRTDQL | not soluble |
| MGSDKIHHHHHHMKIFNAMFSKVNGGLEQVFLNYIPALSSQGNLVIPIIHPKAEIRNSCPQDHLITVHNFNQHDFFAIHRLKKLIKIHQPDCIITHSYRAAYLFKKTRTKVPKIAVCHVKGHYDFGTDAIIALTEQMRRDIINSGIEERRVFTIPNLIHIPDGLQYREPKNNQIPIIGVCARFAAIKGVDVFINALAELKKRGVAFQAKIAGDGKEKEQYIELIRHHGLEHEITLLGWIEDKESFYKSIDIFCLPSREESFGLVVLESMMHSLPMVLTRLSGPLEIAGNSGCALFVPPEDPVSMADGLERLLRDKDLSKQLALKAFQRVQHYSSTKVAPMLHKVLEKACEINQQ | not soluble |
| SMDMKQQNFCVVELLPSDPEYNTVASKFNQTCSHFRIEKIERIQNPDLWNSYQAKKKTMDAKNGQTMNEKQLFHGTDAGSVPHVNRNGFNRSYAGKNAVAYGKGTYFAVNANYSANDTYSRPDANGRKHVYYVRVLTGIYTHGNHSLIVPPSKNPQNPTDLYDTVTDNVHHPSLFVAFYDYQAYPEYLITFRK | soluble |
